# Reference: the supplement of paper PMC9732359
# ± gives the uncertainty stated by the source.
# Experiment: protein stability index of a GFP-peptide fusion (yeast GPS) (PSI 1-4); higher = more stable; sorted into four equal gates, so the index is relative within each strain
# Summary of the method: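 The protein stability index of a peptide was calculated by multiplying its read frequency in each gate by that gate's number and adding the products. The peptides were tiled 17-residue stretches of yeast proteins, fused downstream of GFP on a Cherry-expressing plasmid and carried in yeast as a pooled library. Mid-log cultures in leucine-free medium were sorted into four equal gates by GFP/Cherry ratio, and each gate's plasmids were PCR-amplified and Illumina-sequenced.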
Sequence,protein stability index (doa10∆),protein stability index (pdr5∆),protein stability index (san1∆),protein stability index (ubr1∆)
YSSIPSLQDSIIKQENF [SSN2],2.7 ± 0.13,2.99 ± 0.17,2.5 ± 0.086,2.79 ± 0.14
YSSRVDSVTTETGKLLS [BRN1],2.38 ± 0.13,2.46 ± 0.14,2.34 ± 0.21,2.11 ± 0.18
YSSWSAQTIGRNSKTVR [PRE6],2.62 ± 0.14,2.9 ± 0.14,2.91 ± 0.12,2.85 ± 0.098
YSTANEYIIAAIRKAPH [RPN3],2.82 ± 0.061,2.64 ± 0.052,2.62 ± 0.042,2.62 ± 0.047
YTDFENTFQKTVEPVYQ [FAS1],2.15 ± 0.099,2.44 ± 0.1,2.03 ± 0.15,2.73 ± 0.084
YTMSNHGMSVDPRHIQL [RPO31],2.85 ± 0.066,2.91 ± 0.083,2.94 ± 0.053,3.01 ± 0.044
YTQYTNDYLEKHSVTEY [CDC53],2.55 ± 0.1,2.45 ± 0.075,2.81 ± 0.071,3.13 ± 0.092
YVERFETQLKVVTRSKE [SMC1],1.12 ± 0.066,2.29 ± 0.091,1.26 ± 0.2,2.11 ± 0.051
YVKSLHKQISAEDLTIA [SIN4],2.82 ± 0.14,3.19 ± 0.11,2.8 ± 0.2,2.77 ± 0.085
YVRTEETDGKHGKRRSQ [YMR129W/POM152],1.46 ± 0.041,1.85 ± 0.063,1.57 ± 0.11,2 ± 0.053
YWFPLAHFLSLSFTPTT [RPN2],1.65 ± 0.036,1.34 ± 0.033,1.19 ± 0.076,1.19 ± 0.028
YWYWWKNGNEYNEFLYS [QCR8],2.62 ± 0.066,2.21 ± 0.049,2.49 ± 0.06,2.56 ± 0.047
YYAHSIPSSKIDDFTTR [SNU114],2.96 ± 0.07,3.15 ± 0.078,3.08 ± 0.067,3.32 ± 0.077
YYKKFLIEPLPTESYLQ [BRR2],1.85 ± 0.055,2.58 ± 0.066,1.78 ± 0.13,2.48 ± 0.055
YYLGQYYGCLENDHERG [CSN12],2.68 ± 0.098,2.85 ± 0.093,2.84 ± 0.06,3.06 ± 0.052
